Results: paper PMC6687723

Key:
[1] = target: human Hsp40 (DNAJA2), full length (human) (UniProt O60884); assay: ITC; AR protein (100-200 µM) in the syringe titrated into 10-20 µM chaperone in the cell; 25 °C; 25 mM HEPES, 5 mM MgCl2, 10 mM KCl pH 7.5; one or two-site binding model; no nucleotides
[2] = target: Hsp70 (SBD), residues 394-540 (human) (UniProt P0DMV8); assay: as above
[3] = target: Hsp70SBD (HSPA1A), truncated form, residues 394-509 (human) (UniProt P0DMV8); assay: fluorescence polarisation; competition: 2 µM Hsp70SBD and 25 nM FAM-LVEALY with varying concentrations of AR protein, 30 min at room temperature; 100 mM Tris, 20 mM KCl, 6 mM MgCl2 pH 7.4; no nucleotides
[4] = target: androgen receptor N-terminal domain construct NTD_(1-155) (human) (UniProt P10275); assay: NMR titration; 1H,15N-HSQC of 33 µM 15N-labelled NTD construct with 16.5 or 33 µM (0.5 or 1 molar equivalents) unlabelled Hsp70 or Hsp40; 5 °C; 20 mM phosphate pH 7.4, 1 mM TCEP, 10% D2O; no added nucleotides

“androgen receptor N-terminal domain construct NTD_(1-155) (from UniProt P10275 1-155) (domain or fragment)” gave a Kd [1] of 3.3 µM, a stoichiometry N [1] of 0.49 and a Kd [2] of 5 µM. For the same substance, the IC50 [3] was 1.7 µM.

With “human Hsp70 (HSPA1A), full length (from UniProt P0DMV8 1-641) (natural protein)” the I/I0 of NTD (1-155) signals at 1 molar equivalent [4] was 0.3.

“human Hsp40 (DNAJA2), full length (from UniProt O60884 1-412) (natural protein)” was tested, and the I/I0 of NTD (1-155) signals at 1 molar equivalent [4] was 0.3.
